Biological target: the molecule itself
Assay: crystal structure

B1: Catabolite Activator Protein (CAP) (natural protein)
chain: VLGKPQTDPTLEWFLSHCHIHKYPSKSTLIHQGEKAETLYYIVKGSVAVLIKDEEGKEMILSYLNQGDFIGELGLFEEGQERSAWVRAKTACEVAEISYKKFRQLIQVNPDILMRLSAQMARRLQVTSEKVGNLAFLDVTGRIAQTLLNLAKQPDAMTHPDGMQIKITRQEIGQIVGCSRETVGRILKMLEDQNLISAHGKTIVVYGTR
- binding result: binds

Reference: article PMC8100869 (Biochemistry, 2020)
